Here are results for 37 sequences from the supplement of paper PMC9170038.

Series [1] concerns MS2 coat protein. The series is described as follows: apparent KD of MS2 coat protein, switch ON state; designed switch direction (-1 OFF switch, 1 ON switch): 1; higher = weaker reporter binding. The note with it: FMN input: 0 or 200 uM; Eterna round: R93 (includes R88 designs). The essentials:
(§1)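 Designed RNA switches were transcribed on-chip from Illumina sequencing clusters. SNAP-549-labelled MS2 coat protein was titrated onto them in twofold steps from 0.7 or 1.5 nM to 3 µM in 100 mM Tris-HCl pH 7.5, 80 mM KCl, 4 mM MgCl2, either without or with constant ligand. Apparent KD reflects the per-design median of normalised cluster binding-curve fits.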

Series [2] concerns MS2 coat protein. Nature of the series: apparent KD of MS2 coat protein, switch OFF state (with FMN for OFF switches, without FMN for ON switches); designed switch direction (-1 OFF switch, 1 ON switch): 1; higher = weaker reporter binding. The note with it: FMN input: 0 or 200 uM; Eterna round: R93 (includes R88 designs). The method, boiled down:
as §1

Regarding “AUAAAAUAAAAGGAGGAUAUCCUUAAUAAAACAUGAGGAUCACCCAUGUAAAAAAUAAUAAAAUGGGAGAAGGCCUAAAAUAAAU [SS2 M 26]”, the figures for the “apparent KD of MS2 coat protein” value with MS2 coat protein [1] and with MS2 coat protein [2] were 24.2 nM and 64.2 nM, respectively.
Regarding “AUAAAUAAAAGAGAGGAUAUCCAAAAUAAAACAUGAGGAUCACCCAUGUAAAAUAAAAUAAAAUGGGAGAAGGCUCAAAAUAAAU [SS2 M 2]”, the “apparent KD of MS2 coat protein” value with MS2 coat protein [1] was 21.6 nM; in the series with MS2 coat protein [2] it was 72.1 nM.
Taken in the same sequence, the figures for “AUAAAUAAAAUCAAGGAUAUCCAAAAAAAAACAUGAGGAUCACCCAUGUAAAAGAAAAUAAAAUGGGAGAAGGUGAAAAAUAAAU [SS2 M 6]” were 39.4 nM and 68 nM.
Taken in the same sequence, the figures for “AUAUAUAAAAGAUAGGAUAUACUAAAAUAAACAUGAGGAUCACCCAUGUAAAAAAAGAAACUCAUGUAGAAGGAUCAUAUAUAUA [ss2 7th]” were 46.5 nM and 246 nM.
Taken in the same sequence, the figures for “AUAUAUAUAAGGAAGGAUAUCCAAAAAUAAACAUGAGGAUCACCCAUGUCCAUAAAGAAUAAAUGGGAGAAGGUCCAUAUAUAUA [77%, More Tesla, 9]” were 24.2 nM and 123 nM.
Regarding “AUGAAAGUAACGCAGGAUAUCCAGGAUACAACAUGAGGAUCACCCAUGUACAUACGAACGUAUAAGGAGAAGGGUGGAUGAUCUUC [ss2-3]”, the “apparent KD of MS2 coat protein” value was 56.7 nM in the series on MS2 coat protein [1] and 48.2 nM in the series on MS2 coat protein [2].
The corresponding values for “CAGAGACAUGAGGAUCACCCAUGUAGGAUUAUGGGAGGAUAUACAAAGACGAGAGUCAGAGUAGAAGGCCUAGGCC [salish99-ss1-145]” are 29.7 nM and 43.2 nM.
As for “CAUCACGCGCCUAAGGAUAUGUCUCACAAGACAUGAGGAUCACCCAUGUAGAAUAAAUAAAUGAUGCAGAAGGUGGAGCGCAUGC [Gerixeza]”, the “apparent KD of MS2 coat protein” value in the series on MS2 coat protein [1] was determined as 134 nM; in the series on MS2 coat protein [2], 517 nM.
The corresponding values for “CAUCAUGCGCCUAAGGAUAUGUCUCACAAGACAUGAGGAUCACCCAUGUAGAAUAAAUAAACGAUGCAGAAGGUGGAGCGCAUGA [Cexeri]” are 40.2 nM and 222 nM.
The corresponding values for “CAUCAUGCGCCUAAGGAUAUGUCUCACAAGACAUGAGGAUCACCCAUGUAGAAUAAAUAAAUGAUGCAGAAGGUGGAGCGCAUAC [Beusesce]” are 61.9 nM and 507 nM.
The corresponding values for “CGAAGACAUGAGGAUCACCCAUGUCGUCGUAACAGAGGAUAUGGGAACGCCAAGGGCGCAUCAGAAGGCUGAAAAC [Gediaton]” are 16.2 nM and 31 nM.
For the sequence “CGAGUACAUGAGGAUCACCCAUGUUAUGAAUUGUCAGGAUAUGGGUAGAGGUGACAUGCGCCAGAAGGGACGUCUG [JR_SS001_Sub1005]”, the “apparent KD of MS2 coat protein” value was determined as 194 nM in the series with MS2 coat protein [1] and 52.8 nM in the series on MS2 coat protein [2].
The corresponding values for “CGGAGACAUGAGGAUCACCCAUGUGAGAAGAGGCGAGGAUAUCGAAAGAAAGAAGAGAAACGAGAAGGCGCGAGAU [salish99-SS1-069]” are 20.4 nM and 29.8 nM.
Regarding “GAAAAACAUGAGGAUCACCCAUGUGAAAACUUGGGAGGAUAUACUAAGACGAAAGUCGAGGUAGAAGGCCUAAAAG [Same State 1.4i (Mat - Mod of Eli - )]”, the entries for the “apparent KD of MS2 coat protein” value with MS2 coat protein [1] and with MS2 coat protein [2] were 22.4 nM and 74.1 nM, respectively.
The corresponding values for “GAAAAACAUGAGGAUCACCCAUGUGAGAAUAUGGGAGGAUAUACAAGGACGAAAGUCAAGGUAGAAGGCCUAAAAG [Mat - Same State 1 - Eli mod - 28]” are 34.3 nM and 155 nM.
Taken in the same sequence, the figures for “GAAAAACAUGAGGAUCACCCAUGUGAGAAUAUGGGAGGAUAUUCAAAGACGAAAGUCAAAGAAGAAGGCCUAAAAG [Mat - Same State 1 - Eli mod - 37]” were 31.2 nM and 276 nM.
Taken in the same sequence, the figures for “GAAAAACAUGAGGAUCACCCAUGUGUAAAUAUGGGAGGAUAUACAAAGACGUAAGUCAGAGUAGAAGGCCUAAAAG [Garnet 93]” were 29 nM and 176 nM.
For the sequence “GAAAUACAUGAGGAUCACCCAUGUUAGGUAAAACAAGGAUAUCUAGAUAAAUAAAAAUAUAGAGAAGGUGUAUAAA [JR_SS001_Sub206]”, the “apparent KD of MS2 coat protein” value in the series with MS2 coat protein [1] was determined as 20.6 nM; with MS2 coat protein [2] it was 25.1 nM.
Taken in the same sequence, the figures for “GAAGACAUAGUACAGGAUAUAUGAAUAGUCACAUGAGGAUCACCCAUGUCCAUUUAUAUGGGCACAUAGAAGGGUGGUAGUUGUC [Mat - Same state - Malcolm Mod - D125]” were 8.69 nM and 35.3 nM.
The corresponding values for “GACAAACAUGAGGAUCACCCAUGUAGAAAUAUGGGAGGAUAUACAAAGACGAAAGUCAAAGUAGAAGGCCUAAAAG [77%, Mat - Mod of Eli - With 1 more C's]” are 21.7 nM and 79 nM.
Regarding “GAGAAACAUGAGGAUCACCCAUGUAGAAAUAUGGGAGGAUAUACAAAGACGAAAGUCAAAGUAGAAGGCCUAGAAG [77%, Mat - Mod of Eli - With 2 more G's]”, the “apparent KD of MS2 coat protein” value amounted to 21.9 nM in the series on MS2 coat protein [1] and 51.6 nM in the series with MS2 coat protein [2].
For “GAGAAACAUGAGGAUCACCCAUGUAGAGAUAUGGGAGGAUAUACAGAGACGAGAGUCAAAGUAGAAGGCCUAGAAG [77%, Mat - Mod of Eli - With 5 more G's]”, the “apparent KD of MS2 coat protein” value in the series with MS2 coat protein [1] came out at 25.5 nM; in the series with MS2 coat protein [2], 46.4 nM.
The corresponding values for “GAGAAGAAGAGAGAGGAUAUCCAAAGGAAAACAUGAGGAUCACCCAUGUAAAAGGUAGGAAAUUGGGAGAAGGCUCAAAGGAGGG [salish99-ss2-031]” are 23.2 nM and 29.5 nM.
Taken in the same sequence, the figures for “GAGGACGUAGGAUAGGAUAUGUGAAUAAUUACAUGAGGAUCACCCAUGUCCAUUUAUAUGGGAACAUAGAAGGGUUUUCGUUAUC [SameState2 Malc#40]” were 646 nM and 387 nM.
Taken in the same sequence, the figures for “GGGAGACAUGAGGAUCACCCAUGUGAAAACGUGCGAGGAUAUGAAUGGAAACCAUACUGUUCAGAAGGCGUUUGUC [Titus Petronius Secundus]” were 46.5 nM and 69.2 nM.
Take “GGGAGACAUGAGGAUCACCCAUGUGAGAAGAGGCGAGGAUAUCGAAAGAAAGAAGAGAAACGAGAAGGCGCGAGUA [salish99-SS1-050]”: the “apparent KD of MS2 coat protein” value was determined as 29.7 nM in the series on MS2 coat protein [1] and 65.5 nM with MS2 coat protein [2].
The corresponding values for “GUAAGACAUGAGGAUCACCCAUGUAUGCGUCAGCAAGGAUAUGGGAAUAAAAGACAGAAACCAGAAGGUGCUGUUG [Enqudi]” are 26.1 nM and 153 nM.
For “GUGGACAUAGGAUAGGAUAUAUGAAUAAUUACAUGAGGAUCACCCAUGUCCAUUUAUAUGGGAACAUAGAAGGGUUGUAGUUAAC [Mat - Same state - Malcolm Mod - D131]”, the “apparent KD of MS2 coat protein” value came to 117 nM with MS2 coat protein [1] and 81.9 nM with MS2 coat protein [2].
Taken in the same sequence, the figures for “GUGGCCUAGGCACAGGAUAUGUUGCUCGUAACAUGAGGAUCACCCAUGUGCCUAUGAGAUUUAAUGCAGAAGGGUGCACGCCACG [Edbeso]” were 14.7 nM and 233 nM.
The corresponding values for “GUGUAAAGAAUCGAGGAUAUCCUGAAAAGCACAUGAGGAUCACCCAUGUAAGAGCGAGAAUAAUGGGAGAAGGCGAGUUAUCGGU [JR_SS002_Sub1711]” are 20.1 nM and 33 nM.
In the case of “UACACGCUGGCGCAGGAUAUGUCGCUGGUGACAUGAGGAUCACCCAUGUAUACCAUUGCGGUUAAGCAGAAGGGUGAGAAGCGUG [Bidibeso]”, the figures for the “apparent KD of MS2 coat protein” value with MS2 coat protein [1] and in the series with MS2 coat protein [2] were 23.5 nM and 89.8 nM, respectively.
With “UAGAGACAUGAGGAUCACCCAUGUAGGAUUAUGGGAGGAUAUACAAAGACGAGAGUCAGAGUAGAAGGCCUAGGAC [salish99-ss1-136(!)]”, the “apparent KD of MS2 coat protein” value in the series on MS2 coat protein [1] is 21.4 nM; with MS2 coat protein [2] it was 60.1 nM.
“UAUAGACAUGAGGAUCACCCAUGUAGAAUUAUGGGAGGAUAUACAAAGACGAGAGUCAGAGUAGAAGGCCUAGGAU [salish99-ss1-154]”: the “apparent KD of MS2 coat protein” value was determined as 22.2 nM in the series with MS2 coat protein [1] and 63.7 nM in the series with MS2 coat protein [2].
The corresponding values for “UCAGUGCCGACGAAGGAUAUAGCGGGUGAGACAUGAGGAUCACCCAUGUAUGCAGAACUCAUCCUCUAGAAGGUUGAGACGGCAA [Onaaror]” are 101 nM and 84.3 nM.
The corresponding values for “UGGAGACAUGAGGAUCACCCAUGUGAGAAGAGGCGAGGAUAUCGAAAGAAAGAAGAGAAACGAGAAGGCGCGAGAC [salish99-SS1-045]” are 25.2 nM and 41.9 nM.
Consider “UGUUCGAGUAGUGAGGAUAUUCAUGGGCCCACAUGAGGAUCACCCAUGUAAAGGACCGGGCCGAAGGAGAAGGCGCGUAAAAUUA [Esenan]”, for which the “apparent KD of MS2 coat protein” value in the series on MS2 coat protein [1] stood at 28.9 nM; in the series with MS2 coat protein [2] it was 73.3 nM.
Taken in the same sequence, the figures for “UUACAACAUGAGGAUCACCCAUGUAAACCCGACUAAGGAUAUGGAGUGAAAGAUAUCAUCCCAGAAGGUAGAAAUA [Istegeisis]” were 48.2 nM and 53.3 nM.
